Laboratory results reported in PMC4423475, “Structure-based discovery of the first non-covalent inhibitors of Leishmania major tryparedoxin peroxidase by high throughput docking” (Scientific Reports, 2015).

Target: Tryparedoxin peroxidase I from Leishmania major (LmTXNPx) (Leishmania major)
Experiment: crystal structure; hanging drop vapor diffusion at 293 K; 12 mg/mL protein in 20 mM Tris-HCl pH 7.5 with 50 mM DTT (reduced); pentamer in the asymmetric unit, decamer from two pentamers of adjacent asymmetric units

## Tryparedoxin peroxidase I from Leishmania major (LmTXNPx) (enzyme)
  stoichiometry N: 10
